B1: VZV Orf24, C-terminally fused to the HA epitope (pcDNA-Orf24-HA, pHM4695) (other)
chain: MSRRTYVRSERRRGCGDNLLQRIRLVVPSALQCCDGDLPIFDPQRPPARCVFQFNGEDNVSEAFPVEYIMRLMANWAQVDCDPYIKIQNTGVSVLFQGFFFRPTNAPVAEVSIDSNNVILSSTLSTGINLSALESIKRGGGIDRRPLQALMWVNCFVRMPYVQLSFRFMGPEDPSRTIKLMARATDAYMYKETGNNLDEYIRWRPSFRSPPENGSPNTSVQMQSDIKPALPDTQTTRVWKLALPVANVTYALFIVIVLVVVLGAVLFWK
B2: His-tagged pUL50 (HCMV groove protein, soluble recombinant) (other)
chain: MEMNKVLHQDLVQATRRILKLGPSELRVTDAGLICKNPNYSVCDAMLKTDTVYCVEYLLSYWESRTDHVPCFIFKNTGCAVSLCCFVRAPVKLVSPARHVGEFNVLKVNESLIVTLKDIEEIKPSAYGVLTKCVVRKSNSASVFNIELIAFGPENEGEYENLLRELYAKKAASTS
notes: also called His-tagged groove protein
B3: EBV BFRF1, C-terminally fused to the HA epitope (pcDNA-BFRF1-HA, pHM4697) (other)
chain: MASPEERLLDELNNVIVSFLCDSGSLEVERCSGAHVFSRGSSQPLCTVKLRHGQIYHLEFVYKFLAFKLKNCNYPSSPVFVISNNGLATTLRCFLHEPSGLRSGQSGPCLGLSTDVDLPKNSIIMLGQDDFIKFKSPLVFPAELDLLKSMVVCRAYITEHRTTMQFLVFQAANAQKASRVMDMISDMSQQLSRSGQVEDTGARVTGGGGPRPGVTHSGCLGDSHVRGRGGWDLDNFSEAETEDEASYAPWRDKDSWSESEAAPWKKELVRHPIRRHRTRETRRMRGSHSRVEHVPPETRETVVGGAWRYSWRATPYLARVLAVTAVALLLMFLRWT
notes: also called EBC BFRF1-HA; HA-tagged BFRF1
B4: pUL53 (50-292) (other)
chain: PSPADARPRLTLHDLHDIFREHPELELKYLNMMKMAITGKESICLPFNFHSHRQHTCLDISPYGNEQVSRIACTSCEDNRILPTASDAMVAFINQTSNIMKNRNFYYGFCKSSELLKLSTNQPPIFQIYYLLHAANHDIVPFMHAEDGRLHMHVIFENPDVHIPCDCITQMLTAAREDYSVTLNIVRDHVVISVLCHAVSASSVKIDVTILQRKIDEMDIPNDVSESFERYKELIQELCQSSG
B5: EBV BFLF2, C-terminally fused to the Flag epitope (pcDNA-BFLF2-Flag, pHM4698) (other)
chain: MAPVTPDAVNARQQRPADPALRRLMHPHHRNYTASKASAHSVKSVSRCGKSRSELGRMERVGSVARSICSRHTRHGVDRSHFSLRDFFRGISANFELGKDFLREMNTPIHVSEAVFLPLSLCTLSPGRCLRLSPFGHSLTLGSHCEICINRSQVHVPQEFSSTQLSFFNNVHKIIPNKTFYVSLLSSSPSAVKAGLSQPSLLYAYLVTGHFCGTICPIFSTNGKGRLIMHLLLQGTSLHIPETCLKLLCENIGPTYELAVDLVGDAFCIKVSPRDTVYEKAVNVDEDAIYEAIKDLECGDELRLQIINYTQLILENKQDYKDDDDK
notes: also called Flag-tagged BFLF2
B6: VZV Orf27, C-terminally fused to the Flag epitope (pcDNA-Orf27-Flag, pHM4696) (other)
chain: MHLKPTRFFHANQPPMPHSYEMEDLCFDDMQYRWSPSNTPYRSMSRRYKSVSRSGPSMRVRSRTPCRRQTIRGKLMSKERSVYRHYFNYIARSPPEELATVRGLIVPIIKTTPVTLPFNLGQTVADNCLSLSGMGYHLGLGGYCPTCTASGEPRLCRTDRAALILAYVQQLNNIYEYRVFLASILALSDRANMQAASAEPLLSSVLAQPELFFMYHIMREGGMRDIRVLFYRDGDAGGFMMYVIFPGKSVHLHYRLIDHIQAACRGYKIVAHVWQTTFLLSVCRNPEQQTETVVPSIGTSDVYCKMCDLNFDGELLLEYKRLYALFDDFVPPRDYKDDDDK
B7: HCMV pUL53, C-terminally fused to the Flag epitope (pcDNA-UL53-Flag, pHM2590) (other)
chain: MSSVSGVRTPRERRSALRSLLRKRRQRELASKVASTVNGATSANNHGEPPSPADARPRLTLHDLHDIFREHPELELKYLNMMKMAITGKESICLPFNFHSHRQHTCLDISPYGNEQVSRIACTSCEDNRILPTASDAMVAFINQTSNIMKNRNFYYGFCKSSELLKLSTNQPPIFQIYYLLHAANHDIVPFMHAEDGRLHMHVIFENPDVHIPCDCITQMLTAAREDYSVTLNIVRDHVVISVLCHAVSASSVKIDVTILQRKIDEMDIPNDVSESFERYKELIQELCQSSGNNLYEEATSSYAIRSPLTASPLHVVSTNGCGPSSSSQSTPPHLHPPSQATQPHHYSHHQSQSQQHHHRPQSPPPPLFLNSIRAPDYKDDDDK
notes: also called pUL53-Flag; Flag-tagged pUL53
B8: EBV hook peptide (Ac-BFLF2 80-108-Aoa-Lys(Bio)-NH2) (peptide)
peptide: Ac-SHFSLRDFFRGISANFELGKDFLREMNTP[Aoa]K(Bio)-NH2
modifications: reading uncertain
B9: HCMV hook peptide (Ac-pUL53 59-87-Aoa-Lys(Bio)-NH2) (peptide)
peptide: LTLHDLHDIFREHPELELKYLNMMKMAITK
modifications: not checked
B10: His-tagged BFRF1 (EBV groove protein, soluble recombinant) (other)
chain: MASPEERLLDELNNVIVSFLCDSGSLEVERCSGAHVFSRGSSQPLCTVKLRHGQIYHLEFVYKFLAFKLKNCNYPSSPVFVISNNGLATTLRCFLHEPSGLRSGQSGPCLGLSTDVDLPKNSIIMLGQDDFIKFKSPLVFPAELDLLKSMVVCRAYITEHRTTMQFLVFQAANAQKASRVMDMISDMSQQLS
notes: as for B2

In series [1] the target is B6. Kind of series: coimmunoprecipitation, transiently transfected 293T cells.
For series [2], the target named is B7. The series is described as above.
In series [3] the target is T1, pUL53 (HCMV hook protein, soluble recombinant) (human cytomegalovirus (HCMV), UniProt P16794 50-292).
T1 sequence: B4 chain
Kind of series: direct ELISA, pUL53 coated, His-tagged pUL50 in serial dilutions, anti-His-HRP.

In series [4] the target is T1, pUL53 (HCMV hook protein, soluble …). As to the kind of experiment: direct ELISA, comparison of EC50 values. (In general: ELISA stands for enzyme-linked immunosorbent assay.)
Series [5] deals with the molecule itself. Kind of series: analytical size exclusion chromatography, self-association.
Series [6] concerns the target B3. Kind of series: coimmunoprecipitation, transiently transfected 293T cells.
Series [7] deals with T2, HCMV pUL50, C-terminally fused to the HA epitope (pcDNA-UL50-HA, pHM2589) (human cytomegalovirus (HCMV) strain …, UniProt P16791 1-397).
T2 sequence: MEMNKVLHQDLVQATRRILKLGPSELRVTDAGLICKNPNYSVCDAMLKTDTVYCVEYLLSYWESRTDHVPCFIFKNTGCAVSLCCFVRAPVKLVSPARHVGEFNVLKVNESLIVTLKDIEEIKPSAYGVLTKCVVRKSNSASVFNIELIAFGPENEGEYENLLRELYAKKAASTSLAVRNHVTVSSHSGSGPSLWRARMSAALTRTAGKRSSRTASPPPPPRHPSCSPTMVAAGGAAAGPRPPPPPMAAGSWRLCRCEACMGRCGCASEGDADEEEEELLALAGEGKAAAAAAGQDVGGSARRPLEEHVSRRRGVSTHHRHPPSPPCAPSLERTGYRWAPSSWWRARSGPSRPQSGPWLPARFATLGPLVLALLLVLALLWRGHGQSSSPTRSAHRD
The description is as above.

In series [8] the target is T3, His-tagged pUL50 (HCMV groove protein, soluble recombinant) (human cytomegalovirus (HCMV)), P16791.
T3 chain: B2 chain
As to the kind of experiment: competitive ELISA, inhibition of His-tagged pUL50 binding to coated pUL53.

In series [9] the target is T4, BFLF2 (EBV hook protein, soluble recombinant) (Epstein-Barr virus (EBV), UniProt P0CK47 78-318).
T4 sequence: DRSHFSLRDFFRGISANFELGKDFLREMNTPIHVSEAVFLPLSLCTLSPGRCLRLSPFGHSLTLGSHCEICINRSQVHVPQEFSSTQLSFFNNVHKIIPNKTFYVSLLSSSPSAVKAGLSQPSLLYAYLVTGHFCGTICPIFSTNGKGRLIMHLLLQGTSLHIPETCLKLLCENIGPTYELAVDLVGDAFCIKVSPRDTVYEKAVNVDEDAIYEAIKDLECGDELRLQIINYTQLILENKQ
Kind of series: direct ELISA, BFLF2 coated, His-tagged BFRF1 in serial dilutions, anti-His-HRP.

Non-standard residues stand in square brackets, D forms with d. *: point of attachment. Bio = O=C1N[C@H]2[C@H](CS[C@H]2CCCCC(=O)*)N1; Aoa = not defined here

A word on the EC50: it is the concentration needed to bring the measured effect to its halfway point. As a reminder, the IC50 is the concentration that gives 50% inhibition.

B1: the values for the binding result in series [1] and in [2] were “binds” and “no binding”, respectively.
Take B2: in [3], the EC50 was found to be 6.2 nM. The “fold stronger than the BFRF1-BFLF2 interaction of EBV” value in series [4] was ~20 fold.
With B3, in [2], the binding result was “no binding”.
On to B4, for which the binding result in series [5] was “binds”.
With B5, the binding result in [6] was “binds”; in series [7], “no binding”.
As for B6, the binding result in series [7] is recorded as “no binding”.
Same read-out and setting: next, B7: “binds”.
For the molecule B8, in series [8], the IC50 is 2600 nM and the fold lower inhibitory activity than the HCMV hook peptide worked out at 22 fold.
As for B9, the IC50 in series [8] is 114 nM.
B10: the EC50 in [9] is 122 nM.

The values above are taken from patent US20210396761A1 (AICURIS, published 2021).
